No end group written: not given here.
T1: P6A-mScarlet-I (Arabidopsis PIF6 residues 14 to 53, APB.A portion, fused to mScarlet-I) (Arabidopsis thaliana, UniProt Q8L5W7 14-53)
T1 construct: mScarlet-I: GenBank APD76536; source: E. coli LOBSTR, purified (IMAC, SENP2 cleavage, second IMAC, optionally anion exchange); not shown: His6-SUMO, N-terminal, cleaved; mScarlet-I, C-terminal, kept
T1 chain (looked up): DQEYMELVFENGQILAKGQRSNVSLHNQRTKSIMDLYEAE

B1: Arabidopsis thaliana phytochrome B, N-terminal fragment encompassing the N-terminal extension (NTE) and the photosensory core module (AtPhyB PCM) (domain or fragment, UniProt P14713 1-651, looked up)
chain: MVSGVGGSGGGRGGGRGGEEEPSSSHTPNNRRGGEQAQSSGTKSLRPRSNTESMSKAIQQYTVDARLHAVFEQSGESGKSFDYSQSLKTTTYGSSVPEQQITAYLSRIQRGGYIQPFGCMIAVDESSFRIIGYSENAREMLGIMPQSVPTLEKPEILAMGTDVRSLFTSSSSILLERAFVAREITLLNPVWIHSKNTGKPFYAILHRIDVGVVIDLEPARTEDPALSIAGAVQSQKLAVRAISQLQALPGGDIKLLCDTVVESVRDLTGYDRVMVYKFHEDEHGEVVAESKRDDLEPYIGLHYPATDIPQASRFLFKQNRVRMIVDCNATPVLVVQDDRLTQSMCLVGSTLRAPHGCHSQYMANMGSIASLAMAVIINGNEDDGSNVASGRSSMRLWGLVVCHHTSSRCIPFPLRYACEFLMQAFGLQLNMELQLALQMSEKRVLRTQTLLCDMLLRDSPAGIVTQSPSIMDLVKCDGAAFLYHGKYYPLGVAPSEVQIKDVVEWLLANHADSTGLSTDSLGDAGYPGAAALGDAVCGMAVAYITKRDFLFWFRSHTAKEIKWGGAKHHPEDKDDGQRMHPRSSFQAFLEVVKSRSQPWETAEMDAIHSLQLILRDSFKESEAAMNSKVVDGVVQPCRDMAGEQGIDELGA
modifications: phycocyanobilin chromophore, covalently bound
notes: Phytochrome B, Arabidopsis thaliana, GenBank CAA35222.1; N-terminal fragment with the NTE and the PCM (nPAS-GAF-PHY), lacking PAS1, PAS2 and the HKRD; source: E. coli LOBSTR, purified (Co2+-NTA IMAC, anion exchange); plasmid also encodes Synechocystis sp. heme oxygenase 1 and PcyA
B2: PIF6-mScarlet-I (Arabidopsis PIF6 residues 1 to 100 fused to mScarlet-I) (domain or fragment, Arabidopsis thaliana, UniProt Q8L5W7 1-100, looked up)
chain: MMFLPTDYCCRLSDQEYMELVFENGQILAKGQRSNVSLHNQRTKSIMDLYEAEYNEDFMKSIIHGGGGAITNLGDTQVVPQSHVAAAHETNMLESNKHVD
notes: mScarlet-I: GenBank APD76536; also called AtPIF6; source: E. coli LOBSTR, purified (IMAC, SENP2 cleavage, second IMAC, optionally anion exchange); not shown: His6-SUMO, N-terminal, cleaved
B3: P3A-mScarlet-I (Arabidopsis PIF3 residues 14 to 55, APB.A portion, fused to mScarlet-I) (domain or fragment, Arabidopsis thaliana, UniProt O80536 14-55, looked up)
chain: LESAQDRNPSPPVDEVVELVWENGQISTQSQSSRSRNIPPPQ-{mScarlet‑I}
notes: mScarlet-I: GenBank APD76536; source: E. coli LOBSTR, purified (IMAC, SENP2 cleavage, second IMAC, optionally anion exchange); not shown: His6-SUMO, N-terminal, cleaved; mScarlet-I, C-terminal, kept
B4: PIF3-mScarlet-I (Arabidopsis PIF3 residues 1 to 100 fused to mScarlet-I) (domain or fragment, Arabidopsis thaliana, UniProt O80536 1-100, looked up)
chain: MPLFELFRLTKAKLESAQDRNPSPPVDEVVELVWENGQISTQSQSSRSRNIPPPQANSSRAREIGNGSKTTMVDEIPMSVPSLMTGLSQDDDFVPWLNHH
notes: mScarlet-I: GenBank APD76536; also called AtPIF3; source: E. coli LOBSTR, purified (IMAC, SENP2 cleavage, second IMAC, optionally anion exchange); not shown: His6-SUMO, N-terminal, cleaved
B5: Arabidopsis thaliana phytochrome B residues 1 to 982, AtPhyB (1-982) (domain or fragment, UniProt P14713 1-982, looked up)
chain: MVSGVGGSGGGRGGGRGGEEEPSSSHTPNNRRGGEQAQSSGTKSLRPRSNTESMSKAIQQYTVDARLHAVFEQSGESGKSFDYSQSLKTTTYGSSVPEQQITAYLSRIQRGGYIQPFGCMIAVDESSFRIIGYSENAREMLGIMPQSVPTLEKPEILAMGTDVRSLFTSSSSILLERAFVAREITLLNPVWIHSKNTGKPFYAILHRIDVGVVIDLEPARTEDPALSIAGAVQSQKLAVRAISQLQALPGGDIKLLCDTVVESVRDLTGYDRVMVYKFHEDEHGEVVAESKRDDLEPYIGLHYPATDIPQASRFLFKQNRVRMIVDCNATPVLVVQDDRLTQSMCLVGSTLRAPHGCHSQYMANMGSIASLAMAVIINGNEDDGSNVASGRSSMRLWGLVVCHHTSSRCIPFPLRYACEFLMQAFGLQLNMELQLALQMSEKRVLRTQTLLCDMLLRDSPAGIVTQSPSIMDLVKCDGAAFLYHGKYYPLGVAPSEVQIKDVVEWLLANHADSTGLSTDSLGDAGYPGAAALGDAVCGMAVAYITKRDFLFWFRSHTAKEIKWGGAKHHPEDKDDGQRMHPRSSFQAFLEVVKSRSQPWETAEMDAIHSLQLILRDSFKESEAAMNSKVVDGVVQPCRDMAGEQGIDELGAVAREMVRLIETATVPIFAVDAGGCINGWNAKIAELTGLSVEEAMGKSLVSDLIYKENEATVNKLLSRALRGDEEKNVEVKLKTFSPELQGKAVFVVVNACSSKDYLNNIVGVCFVGQDVTSQKIVMDKFINIQGDYKAIVHSPNPLIPPIFAADENTCCLEWNMAMEKLTGWSRSEVIGKMIVGEVFGSCCMLKGPDALTKFMIVLHNAIGGQDTDKFPFPFFDRNGKFVQALLTANKRVSLEGKVIGAFCFLQIPSPELQQALAVQRRQDTECFTKAKELAYICQVIKNPLSGMRFANSLLEATDLNEDQKQLLETSVSCEKQISRIVGD
modifications: phycocyanobilin chromophore, covalently bound
notes: the oligomeric state is not measured directly here; also called AtPhyB982; source: E. coli LOBSTR, purified (Co2+-NTA IMAC, anion exchange); plasmid also encodes Synechocystis sp. heme oxygenase 1 and PcyA

What was measured:
P3A or PIF3 = assay: FRET or BRET; as a5 (association and dissociation kinetics after a red-light pulse) at several temperatures up to 30 °C; values told for 30 °C or for 30 °C against 15 °C
[1] = biological target: T1, P6A-mScarlet-I (Arabidopsis PIF6 …); assay: as above; settings: both partners purified
[2] = biological target: B2; assay: as above; settings: both partners purified
[3] = biological target: T1, P6A-mScarlet-I (Arabidopsis PIF6 …); assay: FRET or BRET; equilibrium titration: 20 nM P6A-mScarlet-I with 0 to 2,000 nM AtPhyB PCM at 15 °C after red light (658 nm); 50 mM Tris/HCl pH 8.0, 20 mM NaCl, 100 μg/mL BSA; single-site binding isotherm; settings: both partners purified
[4] = biological target: T1, P6A-mScarlet-I (Arabidopsis PIF6 …); assay: FRET or BRET; dissociation kinetics at 15 °C under continuous far-red light (733 nm, 42 mW cm^-2) after saturating red light; same samples as a5; consecutive model (Pfr to Pr reversion, then dissociation); kaR fixed at 0 (Pr state); settings: both partners purified
[5] = biological target: B2; assay: as above; settings: both partners purified
[6] = biological target: B3; assay: as above; settings: both partners purified
[7] = biological target: B4; assay: as above; settings: both partners purified
[8] = biological target: B1; assay: FRET or BRET; association kinetics at 15 °C after a 0.5-s pulse of red light (658 nm, 69 mW cm^-2, optical shutter); 20 nM PIF-mScarlet-I variant with 500 to 2,000 nM AtPhyB PCM, or 30 nM P6A-mScarlet-I with 750 to 2,500 nM AtPhyB (1-982); 50 mM Tris/HCl pH 8.0, 20 mM NaCl; pseudo-first-order, linear fit of koFR against the AtPhyB concentration; kaFR corrected for the Pfr fraction; Kd calculated from kdFR and kaFR …; settings: both partners purified

| Molecule | fold change of kdFR, 30 °C against 15 °C [1] [fold] | Kd [8] [nM] | koff [8] [s⁻¹] | kon [8] [M⁻¹ s⁻¹] | other results |
| --- | --- | --- | --- | --- | --- |
| Arabidopsis thaliana phytochrome B, N-terminal fragment encompassing the N-terminal extension (NTE) and the photosensory core module (AtPhyB PCM) (from UniProt P14713 1-651) (domain or fragment) |  |  |  |  | fold reduction of the affinity, 30 °C against 15 °C (P3A or PIF3): 1.4 to 2.6 fold |
| B1 | 6.5 |  |  |  | fold change of kaFR, 30 °C against 15 °C [1]: 1.3 fold; fold reduction of the affinity, 30 °C against 15 °C [2]: ~5 fold; KD on the total AtPhyB concentration (not corrected for the Pfr fraction) [3]: 180 ± 110 nM; kdR (dissociation rate constant of the complex in the Pr state) [4]: 2.5 s⁻¹; kdR (dissociation rate constant of the complex in the Pr state) [5]: 0.26 s⁻¹; kdR (dissociation rate constant of the complex in the Pr state) [6]: 1.9 s⁻¹; kdR (dissociation rate constant of the complex in the Pr state) [7]: 1.6 s⁻¹ |
| B2 |  | 133 ± 55 | 0.07 | 520000 |  |
| B3 |  | 322 ± 109 | 0.1 | 310000 |  |
| B4 |  | 308 ± 42 | 0.13 | 430000 |  |
| B5 | 5 |  |  |  | fold reduction of the affinity, 30 °C against 15 °C [1]: 3 fold |

— paper PMC11638003, “Plant phytochrome interactions decode light and temperature signals” (The Plant Cell, 2024)
